From the supplement of paper PMC12764529
± gives the half width of the 95% confidence interval.

Legend:
[1] = folding stability dG unfold from chymotrypsin proteolysis; higher = more stable
Summary of the method: (§1)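 Unfolding free energy was derived, per protease or combined, against a sequence-predicted unfolded-state K50 and a shared folded-state K50, starting from K50 inferred by Bayesian fitting of sequencing counts. Digestion with trypsin and chymotrypsin was carried out on designed mini-proteins under 80 residues without cysteine in a PA-tagged cDNA display construct. Only designs with AlphaFold2 dimer inter-PAE above 15 were kept.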

[2] = folding stability dG unfold (combined trypsin and chymotrypsin); higher = more stable
Summary of the method: as §1

[3] = folding stability dG unfold from trypsin proteolysis; higher = more stable
Summary of the method: as §1

Sequence	folding stability dG unfold [1]	folding stability dG unfold [2]	folding stability dG unfold [3]
SAGGLAKAVAEELGLPELKVKEVRFAPDPAGPGLTVEVVFELPDGSYLRVEVRFHPDRIEIKAVPLPPSAGG [r19_392_TrMRF]	3.65 ± 0.15 kcal/mol	3.23 ± 0.15 kcal/mol	2.09 ± 0.093 kcal/mol
SAGGLEEIAEKIAEELKKKGYKAEIKEVVKPPTNEVVIKYTVTYKDKNEIIEEEEKEITFKLPPGLESAGGS [r8_102_JUSTAS]	0.741 ± 0.14 kcal/mol	0.377 ± 0.16 kcal/mol	-0.556 ± 0.16 kcal/mol
SAGGLEEKILEAVKNMSPEEPVVEREVELPDGKLKVTVTRDGLPYTVTITRTNPDGTTTTTTTTILLSAGGS [r16_642_JUSTAS]	2.37 ± 0.046 kcal/mol	2.34 ± 0.12 kcal/mol	2.46 ± 0.16 kcal/mol
SAGGLEELAKEIADDLQKRNPDMNIEVQVEVHEYKIPPGQKMRHPDGEEKEVPPGQKVYMFTIRVTPSAGGS [r16_357_TrROS]	1.26 ± 0.27 kcal/mol	1.17 ± 0.21 kcal/mol	0.758 ± 0.11 kcal/mol
SAGGLEIDTSDGNVKVTKVSTKTTVEKDPTNPDRYRIITSKEIKTEPVKPPDVKEGPPIGLNNPELLSAGGS [r16_395_JUSTAS]	0.418 ± 0.47 kcal/mol	0.165 ± 0.49 kcal/mol	0.475 ± 0.2 kcal/mol
SAGGLEIEVFNEKGEPVEVRLRRKEDDTLELEVRFRDASGREYRARATVRVKETEIELGEVDEWEELESAGG [r13_451_TrMRF]	1.84 ± 0.082 kcal/mol	2.21 ± 0.26 kcal/mol	2.19 ± 0.09 kcal/mol
SAGGLENLENFELVETLTVKLPNGDKPVTLTLYRHPDGPAENVTSYEGKKYVFVVTDDSIEFFEGGTSAGGS [r16_711_TrMRF]	1.24 ± 0.16 kcal/mol	0.81 ± 0.15 kcal/mol	0.0263 ± 0.044 kcal/mol
SAGGLGTDSTVPTLTLSVPVLVPTADGSPRELTVRVTIRAPVRLNPPTGELEIGDVEVSVEVFDPSLLSAGG [r13_312_TrMRF]	3.73 ± 0.11 kcal/mol	3.37 ± 0.13 kcal/mol	3.03 ± 0.11 kcal/mol
SAGGLIEKLKELGFEIVSVEEREETLPNGKKVRTVKITVKLPNGELVKIEVRVLPNGEVIIKIEVKKPSAGG [r13_818_TrROS_Hall]	3.17 ± 0.89 kcal/mol	3.55 ± 0.27 kcal/mol	3.72 ± 0.15 kcal/mol
SAGGLKIPVGSAEDALKAFEAIEEPVLVRTKDRKFVRELKLEDIKELVEKGVEFEFVLPSELPEEERKESAG [r5_677_TrMRF]	0.573 ± 0.21 kcal/mol	0.566 ± 0.39 kcal/mol	0.574 ± 0.07 kcal/mol
SAGGLLPALLAPGFRKPPELPLVVVEAPIEEAVALAKENPSLGVLLVRVGGKLYLIDPKTGKVAPLGSAGGS [r16_214_TrMRF]	1.6 ± 0.033 kcal/mol	1.32 ± 0.056 kcal/mol	0.767 ± 0.018 kcal/mol
SAGGLLVVLPPDLTPEELREKALELAELARKAGDFEVERIELVRDEETDRPYAVLVIRDPRTGKILVASAGG [r13_669_TrMRF]	1.05 ± 0.062 kcal/mol	1.23 ± 0.042 kcal/mol	1.39 ± 0.014 kcal/mol
SAGGLNINLPPGQEIELTLQVTHLFNGGNGDFGSMTHTYEIPIKIKPIPPVPKPEVERDPDGNYKVEDSAGG [r13_401_TrROS]	0.358 ± 0.26 kcal/mol	0.296 ± 0.28 kcal/mol	-0.0612 ± 0.076 kcal/mol
SAGGLPELLKALGLPVTSVRSVPVLLPGGRPALVTFVEFEDPEGERYRLVVVRLPNGEVLVRVERLDPSAGG [r13_818_TrMRF]	4.9 ± 0.12 kcal/mol	4.53 ± 0.1 kcal/mol	3.39 ± 0.15 kcal/mol
SAGGLPPEIKVEISFTPDPATGKWRGTVTAFDPVTGKTVTVPVTSDTPEELRARLEAAAAAVAAALASAGGS [r8_480_JUSTAS]	4.36 ± 0.12 kcal/mol	4.08 ± 0.14 kcal/mol	3.03 ± 0.098 kcal/mol
SAGGLTVTLTDSSGNPVTVETELLPDNTLVLTITRTTPSGKTYTRTGIVSIDNTTINLVSFSEWTEDPSAGG [r13_451_JUSTAS]	3.25 ± 0.08 kcal/mol	3.02 ± 0.16 kcal/mol	2.79 ± 0.097 kcal/mol
SAGGLTWEEAREIAEEIANMEVPSPNGMPMKVKVDIEIDPPNGYFRVDVKVEMPGKPQKFPLEIPLKSAGGS [r16_812_TrROS]	0.536 ± 0.17 kcal/mol	0.673 ± 0.25 kcal/mol	0.607 ± 0.16 kcal/mol
SAGGMAEEVAEAVRDFFESQGLPAEVEPLSVHPNNLVVYRFRVPGYYALVVADPDNPVVVVTVYPLPSAGGS [r8_157_TrMRF]	3.45 ± 0.049 kcal/mol	3.08 ± 0.14 kcal/mol	2.46 ± 0.13 kcal/mol

Sequence	folding stability dG unfold [1]	folding stability dG unfold [2]	folding stability dG unfold [3]
SAGGMAIKDVRVEGGVLYVYRGDKLVAKIEPGAAQPPVLVRFPDGTVVAVPRSVALALNPETLEFFDVSAGG [r13_802_TrMRF]	1.44 ± 0.087 kcal/mol	1.43 ± 0.043 kcal/mol	1.24 ± 0.032 kcal/mol
SAGGMEEIEPVTITITVVDEETGEKVEIKITVPKEEITRIEIKPDGTIRIYFKENNEVIEIKLEDIKSAGGS [r16_410_TrROS_Hall]	4.22 ± 0.19 kcal/mol	4.16 ± 0.32 kcal/mol	2.99 ± 0.24 kcal/mol
SAGGMEFEFTREDGRKTRVELEVNPETGEVTEKIYVGGKLLYTFKDGELKYIPDEVAAARIEARLPPESAGG [r13_958_TrMRF]	1.84 ± 0.079 kcal/mol	1.45 ± 0.11 kcal/mol	-0.0213 ± 0.12 kcal/mol
SAGGMEIKIEKEGNKIKITIKNENGEIEEFEITLKDGKKYRIIIDKDNPNTIYIVDEKTGKTIVLKASAGGS [r16_198_TrROS_Hall]	4.55 ± 0.11 kcal/mol	4.71 ± 0.3 kcal/mol	4.6 ± 0.64 kcal/mol
SAGGMEIVSSGSLEEAIALLKENPNTTITVTLPDGTTVVIKVTQNGEGPYIYDVSTEPPAAAPSPSLVSAGG [r13_56_JUSTAS]	1.1 ± 0.038 kcal/mol	1.66 ± 0.079 kcal/mol	2.15 ± 0.096 kcal/mol
SAGGMEKAIKEIKEAAKKGEEAVIVLPKNVDPSELISAIEKETGAKVEPLEVKPLPNGELVIKIKVKSAGGS [r16_318_TrMRF]	2.23 ± 0.16 kcal/mol	1.89 ± 0.12 kcal/mol	1.44 ± 0.1 kcal/mol
SAGGMELVGEYEVELPDVPIRFPVYRVPEAGLVVVEAERYDPSTGEWTPLGVVPLPEGSAEEALKALSAGGS [r8_423_TrMRF]	0.334 ± 0.089 kcal/mol	0.864 ± 0.061 kcal/mol	1.21 ± 0.034 kcal/mol
SAGGMELVIAVNSKEEAKKAAEEIKKKTPKGFKLEIEIEEYDLKENVEPEDKDIENIKVYLIKVKLESAGGS [r16_795_TrMRF]	2.01 ± 0.21 kcal/mol	1.69 ± 0.23 kcal/mol	1.4 ± 0.13 kcal/mol
SAGGMELVSRKRLSTSADGSVTYLYEYYDPKTGKRYTLVVTVKTPDGKIKPKVFTADSEEEAKKIALESAGG [r13_26_JUSTAS]	1.56 ± 0.16 kcal/mol	1.34 ± 0.11 kcal/mol	1.1 ± 0.06 kcal/mol
SAGGMEPIEIPAKVKITHNGKEQEYPLENVTIWPMPDGMYMIYNPDKGEMFFINPKNGRLMRIEIDDSAGGS [r16_721_TrROS]	2.5 ± 0.15 kcal/mol	1.99 ± 0.19 kcal/mol	0.94 ± 0.092 kcal/mol
SAGGMERKTLTVNVPASVPASELLSLLEGYGDVLLVLGNGEVLHIKRDDAPGLEGLPLSDDDVLELYYSAGG [r13_399_TrMRF]	1.23 ± 0.059 kcal/mol	0.802 ± 0.075 kcal/mol	-0.696 ± 0.14 kcal/mol
SAGGMEVKEISIPVPENLTPEQAVEKVKELFEKHPELEHVLVYFELPNGKPLVVEVDKNGKITKVEEKSAGG [r13_690_TrMRF]	2.28 ± 0.048 kcal/mol	1.88 ± 0.095 kcal/mol	0.889 ± 0.041 kcal/mol
SAGGMEVREIDVENEDGHNVKIEIWWMPGEGWIMVKIEGPNPALIDDIQKEIGLPILEVMKDGYLMIKSAGG [r13_937_TrROS]	2.6 ± 0.033 kcal/mol	2.22 ± 0.091 kcal/mol	1.16 ± 0.03 kcal/mol
SAGGMEVVEIKYDPETGTVTVTVAIPESLSFDEVAPEVEALVKEKTGRPVEITVDPATGTVTATVPRSAGGS [r8_314_JUSTAS]	1.39 ± 0.058 kcal/mol	1.15 ± 0.072 kcal/mol	0.832 ± 0.031 kcal/mol
SAGGMFKVYEVTGKDAKVTIVEAPLPDGGKLVVVEVWEGGKPVKPFLVPVAELEEIAKAIGIKPEELKSAGG [r13_108_TrMRF]	1.9 ± 0.082 kcal/mol	1.58 ± 0.14 kcal/mol	1.05 ± 0.027 kcal/mol
SAGGMGFEKVGTFKLEDDVIVEIYKGPEKKLVAKVYFPKTGKVIEDPGHPDESIEELIERIKAIAEEESAGG [r13_624_TrMRF]	4.32 ± 0.07 kcal/mol	4.2 ± 0.28 kcal/mol	4.48 ± 0.39 kcal/mol
SAGGMGISTEPEISFERKTLPDGTYVLEIHTTTTTTDSSGVVTTTTSTKTVKFSPDNPEKIKELIEALSAGG [r13_412_JUSTAS]	2.51 ± 0.058 kcal/mol	2.54 ± 0.14 kcal/mol	2.67 ± 0.098 kcal/mol
SAGGMGRARLYELEIEVDLHPDETIEGALRRLLGLREDEEILEVEAEVDPVNGKVRIRAVVLVRDPETSAGG [r13_828_TrMRF]	4.22 ± 0.032 kcal/mol	3.85 ± 0.081 kcal/mol	2.47 ± 0.087 kcal/mol
